Laboratory results as given in PMC4004294.
Read-outs that look alike come from different tables or passages of the source.

Legend:
[1] = target: glutathione S-transferase (GST) tagged HIV-1 IN (HIV-1); assay: AlphaScreen or HTRF
[2] = target: HIV-1 integrase fused to mVenus (IN-mVenus), transincorporated into virions as Vpr-IN-mVenus (HIV-1); assay: FRET or BRET
[3] = target: HIV-1 integrase fused to mVenus (IN-mVenus), transincorporated into virions as Vpr-IN-mVenus (HIV-1); assay: FRET or BRET; remark: listed apart in the source

Substance	fold lower AlphaScreen signal than wild-type IN [1]	FRET ratio (r FRET) [2]	FRET ratio (r FRET) [3]
HIV-1 IN point mutant IN(W108G)-His6 (enzyme)	4 fold		
HIV-1 integrase fused to mTFP1 (IN-mTFP1), transincorporated into virions as Vpr-IN-mTFP1 (enzyme)		1.3	1.27
